Laboratory results: patent publication US20240350597A1 (UNIVERSITY COLLEGE DUBLIN, published 2024)

How the values were obtained:
[1] = target: T1, Transmembrane serine protease 2 (TMPRSS2) (UniProt O15393 106-492); assay: cell-based or functional assay
[2] = target: T1, Transmembrane serine protease 2 …; assay: ratio of second order inhibition rate constants, with A1AT as reference

T1 sequence (O15393 106-492 limits assumed): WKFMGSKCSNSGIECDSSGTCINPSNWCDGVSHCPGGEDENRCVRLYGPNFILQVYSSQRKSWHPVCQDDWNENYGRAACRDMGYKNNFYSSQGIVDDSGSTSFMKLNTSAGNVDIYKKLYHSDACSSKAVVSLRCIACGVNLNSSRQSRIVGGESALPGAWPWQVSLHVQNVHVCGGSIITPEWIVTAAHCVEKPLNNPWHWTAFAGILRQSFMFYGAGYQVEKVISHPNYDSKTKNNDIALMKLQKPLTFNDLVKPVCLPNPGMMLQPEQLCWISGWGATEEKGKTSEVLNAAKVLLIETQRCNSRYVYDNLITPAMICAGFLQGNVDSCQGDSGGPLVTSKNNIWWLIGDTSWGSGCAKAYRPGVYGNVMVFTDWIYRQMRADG

B1: SerpinB3-TMP variant (other)
chain: MNSLSEANTKFMFDLFQQFRKSKENNIFYSPISITSALGMVLLGAKDNTAQQIKKVLHFDQVTENTTGKAATYHVDRSGNVHHQFQKLLTEFNKSTDAYELKIANKLFGEKTYLFLQEYLDAIKKFYQTSVESVDFANAPEESRKKINSWVESQTNEKIKNLIPEGNIGSNTTLVLVNAIYFKGQWEKKFNKEDTKEEKFWPNKNTYKSIQMMRQYTSFHFASLEDVQAKVLEIPYKGKDLSMIVLLPNEIDGLQKLEEKLTAEKLMEWTSLQNMRETRVDLHLPRFKVEESYDLKDTLRTMGMVDIFNGDADLSGMTGSRGLVLSGVLHKAFVEVTEEGAEAAAATAVIQFRVSPTSTNEEFHCNHPFLFFIRQNKTNSILFYGRFSSP
notes: also called SerpinB3 anti-TMPRSS2; modified SerpinB3-TMP
In the case of B1, the “TMPRSS2 inhibition at a 5:1 serpin:protease ratio (residual activity on Boc-QAR-AMC after 10 min incubation)” value [1] is reported as 92% and the “fold increase in TMPRSS2 specificity (k2) over A1AT” value [2] is reported as 18 fold.
